What was measured:
[1] = biological target: human B-type natriuretic peptide (human); experiment: two-step sandwich chemiluminescent immunoassay ([..]); capture 8.1 on microparticles, acridinium-labeled 15C4; BNP at 43.8 pM
[2] = biological target: human B-type natriuretic peptide (human); experiment: two-step sandwich chemiluminescent immunoassay ([..]); capture 8.1 on microparticles, acridinium-labeled 15C4; BNP at 86.6 pM
[3] = biological target: human B-type natriuretic peptide (human); experiment: two-step sandwich chemiluminescent immunoassay ([..]); capture 8.1 on microparticles, acridinium-labeled 15C4; BNP at 288.7 pM
[4] = biological target: human B-type natriuretic peptide (human); experiment: two-step sandwich chemiluminescent immunoassay ([..]); capture 8.1 on microparticles, acridinium-labeled 15C4; BNP at 577.4 pM
[5] = biological target: human B-type natriuretic peptide (human); experiment: two-step sandwich chemiluminescent immunoassay ([..]); capture 15F11 on microparticles, acridinium-labeled 15C4; BNP at 43.8 pM
[6] = biological target: human B-type natriuretic peptide (human); experiment: two-step sandwich chemiluminescent immunoassay ([..]); capture 15F11 on microparticles, acridinium-labeled 15C4; BNP at 86.6 pM
[7] = biological target: human B-type natriuretic peptide (human); experiment: two-step sandwich chemiluminescent immunoassay ([..]); capture 15F11 on microparticles, acridinium-labeled 15C4; BNP at 288.7 pM
[8] = biological target: human B-type natriuretic peptide (human); experiment: two-step sandwich chemiluminescent immunoassay ([..]); capture 15F11 on microparticles, acridinium-labeled 15C4; BNP at 577.4 pM
[9] = biological target: human pro B-type natriuretic peptide (human); experiment: two-step sandwich chemiluminescent immunoassay ([..]); capture 8.1 on microparticles, acridinium-labeled 15C4; proBNP at 43.8 pM
[10] = biological target: human pro B-type natriuretic peptide (human); experiment: two-step sandwich chemiluminescent immunoassay ([..]); capture 8.1 on microparticles, acridinium-labeled 15C4; proBNP at 86.6 pM
[11] = biological target: human pro B-type natriuretic peptide (human); experiment: two-step sandwich chemiluminescent immunoassay ([..]); capture 8.1 on microparticles, acridinium-labeled 15C4; proBNP at 288.7 pM
[12] = biological target: human pro B-type natriuretic peptide (human); experiment: two-step sandwich chemiluminescent immunoassay ([..]); capture 8.1 on microparticles, acridinium-labeled 15C4; proBNP at 577.4 pM
[13] = biological target: human B-type natriuretic peptide (human); experiment: two-step sandwich chemiluminescent immunoassay ([..]); capture 8.1 on microparticles, acridinium-labeled 15C4; BNP at 0 pM (blank)
[14] = biological target: human B-type natriuretic peptide (human); experiment: two-step sandwich chemiluminescent immunoassay ([..]); capture 15F11 on microparticles, acridinium-labeled 15C4; BNP at 0 pM (blank)
[15] = biological target: human N-terminal-pro B-type natriuretic peptide (human); experiment: two-step sandwich chemiluminescent immunoassay ([..]); capture 15F11 on microparticles, acridinium-labeled 15C4; NT-proBNP at 43.8 pM
[16] = biological target: human N-terminal-pro B-type natriuretic peptide (human); experiment: two-step sandwich chemiluminescent immunoassay ([..]); capture 15F11 on microparticles, acridinium-labeled 15C4; NT-proBNP at 86.6 pM
[17] = biological target: human pro B-type natriuretic peptide (human); experiment: two-step sandwich chemiluminescent immunoassay ([..]); capture 8.1 on microparticles, acridinium-labeled 15C4; proBNP at 0 pM (blank)
[18] = biological target: human N-terminal-pro B-type natriuretic peptide (human); experiment: two-step sandwich chemiluminescent immunoassay ([..]); capture 15F11 on microparticles, acridinium-labeled 15C4; NT-proBNP at 288.7 pM
[19] = biological target: human N-terminal-pro B-type natriuretic peptide (human); experiment: two-step sandwich chemiluminescent immunoassay ([..]); capture 15F11 on microparticles, acridinium-labeled 15C4; NT-proBNP at 577.4 pM
[20] = biological target: human N-terminal-pro B-type natriuretic peptide (human); experiment: two-step sandwich chemiluminescent immunoassay ([..]); capture 15F11 on microparticles, acridinium-labeled 15C4; NT-proBNP at 0 pM (blank)

Sequence of human pro B-type natriuretic peptide (human) (chain, as listed by the source): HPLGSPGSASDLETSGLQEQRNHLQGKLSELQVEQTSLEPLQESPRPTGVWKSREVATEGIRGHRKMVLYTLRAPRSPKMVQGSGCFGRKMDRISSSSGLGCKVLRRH
Sequence of human B-type natriuretic peptide (human) (peptide, as listed by the source): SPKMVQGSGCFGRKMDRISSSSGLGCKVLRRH
Sequence of human N-terminal-pro B-type natriuretic peptide (human) (chain, as listed by the source): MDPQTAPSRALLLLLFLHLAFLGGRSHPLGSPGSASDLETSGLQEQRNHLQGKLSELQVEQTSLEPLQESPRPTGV

Substance: monoclonal antibody 15C4
- mean rlus [1]: 567 RLU
- mean rlus [2]: 713 RLU
- mean rlus [3]: 732 RLU
- mean rlus [4]: 701 RLU
- mean rlus [5]: 1040 RLU
- mean rlus [6]: 1080 RLU
- mean rlus [7]: 1130 RLU
- mean rlus [8]: 1140 RLU
- mean rlus [9]: 5480 RLU
- mean rlus [10]: 12000 RLU
- mean rlus [11]: 43000 RLU
- mean rlus [12]: 116000 RLU
- mean rlus [13]: 745 RLU
- mean rlus [14]: 1200 RLU
- mean rlus [15]: 22400 RLU
- mean rlus [16]: 62700 RLU
- mean rlus [17]: 659 RLU
- mean rlus [18]: 317000 RLU
- mean rlus [19]: 658000 RLU
- mean rlus [20]: 1140 RLU

Source: patent US20110124012A1
